Tests used:
[1] = target: human CD163 on cells (human) (UniProt Q86VB7); experiment: quantitative flow cytometry, whole blood, EDTA
[2] = target: human CD163 on cells (human) (UniProt Q86VB7); experiment: quantitative flow cytometry, whole blood, citrate
[3] = target: human CD163 on cells (human) (UniProt Q86VB7); experiment: quantitative flow cytometry, whole blood, heparin
[4] = target: human CD163 on cells (human) (UniProt Q86VB7); experiment: flow cytometry, whole blood, EDTA as anticoagulant
[5] = target: human CD163 on cells (human) (UniProt Q86VB7); experiment: flow cytometry, whole blood, citrate as anticoagulant
[6] = target: human CD163 on cells (human) (UniProt Q86VB7); experiment: flow cytometry, whole blood, heparin as anticoagulant
[7] = target: human CD163 on cells (human) (UniProt Q86VB7); experiment: flow cytometry, R-PE mAb, freshly drawn EDTA whole blood
[8] = target: human CD163 on cells (human) (UniProt Q86VB7); experiment: flow cytometry, PBMC after density gradient centrifugation
[9] = target: human CD163 on cells (human) (UniProt Q86VB7); experiment: quantitative flow cytometry, Quantibrite PE beads, EDTA whole blood
[10] = target: human CD163 on cells (human) (UniProt Q86VB7); experiment: quantitative flow cytometry, PBMC after density gradient centrifugation
[11] = target: human CD163 on cells (human) (UniProt Q86VB7); experiment: 125I-labelled mAb on stable CD163 transfected Flp-In CHO cells (0.97% on non-transfected cells)
[12] = target: human CD163 on cells (human) (UniProt Q86VB7); experiment: quantitative flow cytometry, background staining, EDTA whole blood
[13] = target: human CD163 on cells (human) (UniProt Q86VB7); experiment: flow cytometry on peripheral blood dendritic cells, negative staining control
[14] = target: human CD163 on cells (human) (UniProt Q86VB7); experiment: 125I-labelled mAb on stable CD163 transfected Flp-In CHO cells (1.23% on non-transfected cells)
rat CD163 on cells (rat) [15] = experiment: cell-based or functional assay
[16] = target: purified recombinant CD163 immobilized on a Biacore chip (human) (UniProt Q86VB7); experiment: SPR, immobilized CD163, 10 mM EDTA
[17] = target: human CD163 on cells (human) (UniProt Q86VB7); experiment: flow cytometry, PE mAb, peripheral blood dendritic cells
[18] = target: human CD163 on cells (human) (UniProt Q86VB7); experiment: flow cytometry, PE mAb, CD14-ILT3+ dendritic cells in whole blood
[19] = target: human CD163 on cells (human) (UniProt Q86VB7); experiment: flow cytometry, CD163low subset of peripheral blood dendritic cells
[20] = target: human CD163 on cells (human) (UniProt Q86VB7); experiment: flow cytometry, CD163high subset of peripheral blood dendritic cells
[21] = target: human CD163 on cells (human) (UniProt Q86VB7); experiment: flow cytometry, CD14+ILT3+HLA-DR+ monocytes stained positive for CD163
[22] = target: purified recombinant CD163 immobilized on a Biacore chip (human) (UniProt Q86VB7); experiment: SPR, immobilized CD163, 2 mM free Ca2+
[23] = target: human CD163 on cells (human) (UniProt Q86VB7); experiment: 125I-labelled mAb on stable CD163 transfected Flp-In CHO cells (1.47% on non-transfected cells)
rat CD163 on cells (rat) [24] = experiment: flow cytometry, rat peritoneal macrophages, ED2-FITC
rat CD163 on cells (rat) [25] = experiment: flow cytometry of rat peritoneal macrophages, anti-rat CD163-FITC (ED2) against anti-rat CD172a-PE (ED9)
rat CD163 on cells (rat) [26] = experiment: flow cytometry of rat peritoneal macrophages, negative control staining with IgG-FITC

Chain of human CD163 on cells (human) (Q86VB7 42-1156): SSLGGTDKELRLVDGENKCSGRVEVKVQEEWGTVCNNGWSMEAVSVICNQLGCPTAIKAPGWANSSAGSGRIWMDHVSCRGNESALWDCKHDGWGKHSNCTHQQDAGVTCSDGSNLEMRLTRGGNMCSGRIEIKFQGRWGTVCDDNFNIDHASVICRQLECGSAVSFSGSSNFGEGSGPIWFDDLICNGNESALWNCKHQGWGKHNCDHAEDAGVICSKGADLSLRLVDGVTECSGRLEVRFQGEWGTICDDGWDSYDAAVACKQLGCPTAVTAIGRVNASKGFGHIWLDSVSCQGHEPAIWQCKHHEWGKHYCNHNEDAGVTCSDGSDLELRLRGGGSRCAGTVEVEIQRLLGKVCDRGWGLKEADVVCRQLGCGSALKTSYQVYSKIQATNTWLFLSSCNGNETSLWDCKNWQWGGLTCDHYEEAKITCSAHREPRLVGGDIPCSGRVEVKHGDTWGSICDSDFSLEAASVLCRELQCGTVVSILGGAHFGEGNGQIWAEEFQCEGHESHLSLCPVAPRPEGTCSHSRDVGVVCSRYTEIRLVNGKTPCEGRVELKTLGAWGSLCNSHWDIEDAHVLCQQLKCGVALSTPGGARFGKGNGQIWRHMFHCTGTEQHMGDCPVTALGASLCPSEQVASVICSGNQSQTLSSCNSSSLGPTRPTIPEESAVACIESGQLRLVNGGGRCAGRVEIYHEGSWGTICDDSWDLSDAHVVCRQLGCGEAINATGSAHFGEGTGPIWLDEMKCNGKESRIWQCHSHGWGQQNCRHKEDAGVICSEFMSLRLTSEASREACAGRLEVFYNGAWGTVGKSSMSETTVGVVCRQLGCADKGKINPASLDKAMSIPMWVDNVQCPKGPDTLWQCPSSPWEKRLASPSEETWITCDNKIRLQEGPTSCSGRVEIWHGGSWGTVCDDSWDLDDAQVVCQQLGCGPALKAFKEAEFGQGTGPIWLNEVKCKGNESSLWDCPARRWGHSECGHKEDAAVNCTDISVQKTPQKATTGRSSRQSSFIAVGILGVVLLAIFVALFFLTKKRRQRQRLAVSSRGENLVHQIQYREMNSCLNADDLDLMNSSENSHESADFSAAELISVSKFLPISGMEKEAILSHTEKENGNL
Chain of purified recombinant CD163 immobilized on a Biacore chip (human) (Q86VB7 42-1050 limits assumed): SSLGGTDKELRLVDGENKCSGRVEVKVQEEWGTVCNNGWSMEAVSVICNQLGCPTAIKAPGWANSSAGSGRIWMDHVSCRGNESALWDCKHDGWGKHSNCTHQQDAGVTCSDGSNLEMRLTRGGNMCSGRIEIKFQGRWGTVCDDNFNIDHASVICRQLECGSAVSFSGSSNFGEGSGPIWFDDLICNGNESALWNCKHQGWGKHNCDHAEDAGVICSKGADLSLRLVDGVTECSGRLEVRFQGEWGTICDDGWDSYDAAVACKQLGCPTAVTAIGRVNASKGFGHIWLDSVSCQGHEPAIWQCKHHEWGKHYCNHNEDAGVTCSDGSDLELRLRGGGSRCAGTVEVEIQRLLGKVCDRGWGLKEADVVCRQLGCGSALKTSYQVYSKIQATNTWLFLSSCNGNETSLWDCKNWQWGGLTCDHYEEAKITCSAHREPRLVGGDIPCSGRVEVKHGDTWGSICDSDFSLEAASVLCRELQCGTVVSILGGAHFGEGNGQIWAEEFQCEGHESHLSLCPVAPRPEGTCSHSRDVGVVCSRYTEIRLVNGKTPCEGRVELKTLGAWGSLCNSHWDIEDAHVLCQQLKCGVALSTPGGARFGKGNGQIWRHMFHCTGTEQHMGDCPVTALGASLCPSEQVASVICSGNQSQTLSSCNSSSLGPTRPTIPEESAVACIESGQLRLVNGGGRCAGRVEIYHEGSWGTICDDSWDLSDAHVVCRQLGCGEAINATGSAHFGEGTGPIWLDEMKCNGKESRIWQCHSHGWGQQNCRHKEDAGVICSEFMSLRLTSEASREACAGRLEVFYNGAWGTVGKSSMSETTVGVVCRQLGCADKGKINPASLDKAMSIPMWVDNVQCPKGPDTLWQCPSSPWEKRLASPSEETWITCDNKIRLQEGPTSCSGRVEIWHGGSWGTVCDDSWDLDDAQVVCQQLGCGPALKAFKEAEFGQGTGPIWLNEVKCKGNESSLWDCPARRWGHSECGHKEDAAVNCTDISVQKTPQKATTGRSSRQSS

Substance | density of CD163 receptors per monocyte (PE antibodies bound per cell) [1] | density of CD163 receptors per monocyte (PE antibodies bound per cell) [2] | density of CD163 receptors per monocyte (PE antibodies bound per cell) [3] | fraction of CD14+ monocytes stained positive for CD163 [4] | fraction of CD14+ monocytes stained positive for CD163 [5] | fraction of CD14+ monocytes stained positive for CD163 [6] | fraction of CD14+ monocytes stained positive for CD163 [7] | fraction of CD14+ monocytes stained positive for CD163 [8] | density of CD163 receptors per monocyte (PE antibodies bound per cell) [9] | density of CD163 receptors per monocyte (PE antibodies bound per cell) [10] | other results
Anti-CD163 (R-20) (antibody) | 1760 per monocyte | 1990 per monocyte | 3020 per monocyte | 75.9% | 74.7% | 63% | 75.9% | 54.4% | 1650 per monocyte | 837 per monocyte | percentage of cell-associated radioactivity [11]: 19%
R-PE-conjugated Mouse IgG1, k isotype control (MCG1) (antibody) |  |  |  |  |  |  |  |  |  |  | density of CD163 receptors per monocyte (PE antibodies bound per cell) [12]: 94 per monocyte; MFI [13]: 1.23 MFI
Anti-CD163 (GHI/61) (antibody, non-transfected cells) |  |  |  |  |  |  |  |  |  |  | percentage of cell-associated radioactivity [14]: 1.23%
ED2-MVCP-dexamethasone (antibody) |  |  |  |  |  |  |  |  |  |  | suppressive effect on LPS mediated TNFα in vitro, rat spleen cells, against free dexamethasone (rat CD163 on cells (rat) [15]): 3 fold
Anti-CD163 (GHI/61) (antibody) | 1030 per monocyte | 1150 per monocyte | 58.3 per monocyte | 63% | 64.4% | 0.82% | 63% | 1.26% | 1030 per monocyte | 108 per monocyte | Kd [16]: 29 nM; MFI [17]: 22.3; fraction of peripheral blood dendritic cells recognized [18]: 10.5%; MFI [19]: 4.2 MFI; MFI [20]: 34.6 MFI; percent of cells stained positive [21]: 88%
Anti-CD163 (RM3/1) (antibody) | 86 per monocyte | 207 per monocyte | 210 per monocyte | 0.33% | 12.5% | 3.33% | 0.33% | 2.5% | 101 per monocyte | 132 per monocyte | Kd [22]: 0.6 nM; percentage of cell-associated radioactivity [23]: 7.77%
ED2-NHS-dexamethasone (antibody) |  |  |  |  |  |  |  |  |  |  | level of TNFα suppression after 15 minutes of incubation, LPS stimulated rat spleen cells, against free dexamethasone (rat CD163 on cells (rat) [15]): 2 fold; suppressive effect on LPS mediated TNFα in vitro, rat spleen cells, against free dexamethasone (rat CD163 on cells (rat) [15]): 2 fold
Anti-rat CD163 ED2 (antibody) |  |  |  |  |  |  |  |  |  |  | fraction of peritoneal macrophages CD163 positive (rat CD163 on cells (rat) [24]): 42%; % of cells in the lower right quadrant (CD172a PE negative, CD163 FITC positive) (rat CD163 on cells (rat) [25]): 0.01%; % of cells in the upper right quadrant (CD172a PE positive, CD163 FITC positive) (rat CD163 on cells (rat) [25]): 42.9%
IgG-FITC (antibody) |  |  |  |  |  |  |  |  |  |  | % of cells in the lower right quadrant (IgG FITC positive) (rat CD163 on cells (rat) [26]): 0.41%; % of cells in the upper right quadrant (IgG FITC positive, FL2 positive) (rat CD163 on cells (rat) [26]): 0.06%
